Data: paper PMC2138355

Target: fourth component of human complement (C'4) (human)
Assay: sucrose density gradient ultracentrifugation

C'2 oxidized by treatment with a critical concentration of iodine (oxyC'2) (natural protein)
s rate of C'2 in mixtures with C'4 (pH 5): 7.7 S | s rate of C'2 in mixtures with C'4 (pH 8): 13.5 S
